Laboratory results reported in patent US10704030B2, “P450-BM3 variants with improved activity” (Codexis, Inc., priority 2015, dated 2020).

B1: SEQ ID NO: 12: P450-BM3 parental backbone from the commercially available MCYP panel (MCYP-0343; Codexis) (protein)
chain: MTIKEMPQPKTFGELKNLPLLNTDKPVQALMKIADELGEIFKFEAPGCVTRYLSSQRLIKEACDESRFDKNLSQALKFSRDFAGDGLFTSWTHEINWKKAHNILLPSFSQQAMKGYHAMMVDIAVQLVQKWERLNADEHIEVSEDMTRLTLDTIGLCGFNYRFNSFYRDQPHPFIISMVRALDEVMNKLQRANPDDPAYDENKRQCQEDIKVMNDLVDKIIADRKARGEQSDDLLTQMLNGKDPETGEPLDDGNISYQIITFLIAGHETTSGLLSFALYFLVKNPHVLQKVAEEAARVLVDPVPSYKQVKQLKYVGMVLNEALRLWPTAPAFSLYAKEDTVLGGEYPLEKGDEVMVLIPQLHRDKTIWGDDVEEFRPERFENPSAIPQHAFKPFGNGQRACIGQQFALHEATLVLGMMLKHFDFEDHTNYELDIKETLTLKPEGFVVKAKSKKIPLGGIPSPSTEQSAKKVRKKAENAHNTPLLVLYGSNMGTAEGTARDLADIAMSKGFAPQVATLDSHAGNLPREGAVLIVTASYNGHPPDNAKQFVDWLDQASADEVKGVRYSVFGCGDKNWATTYQKVPAFIDETLAAKGAENIADRGEADASDDFEGTYEEWREHMWSDVAAYFNLDIENSEDNKSTLSLQFVDSAADMPLAKMHGAFSTNVVASKELQQPGSARSTRHLEIELPKEASYQEGDHLGVIPRNYEGIVNRVTARFGLDASQQIRLEAEEEKLAHLPLAKTVSVEELLQYVELQDPVTRTQLRAMAAKTVCPPHKVELEALLEKQAYKEQVLAKRLTMLELLEKYPACEMKFSEFIALLPSIRPRYYSISSSPRVDEKQASITVSVVSGEAWSGYGEYKGIASNYLAELQEGDTITCFISTPQSEFTLPKDPETPLIMVGPGTGVAPFRGFVQARKQLKEQGQSLGEAHLYFGCRSPHEDYLYQEELENAQSEGIITLHTAFSRMPNQPKTYVQHVMEQDGKKLIELLDQGAHFYICGDGSQMAPAVEATLMKSYADVHQVSEADARLWLQQLEEKGRYAKDVWAG
modifications: P450_BM3
B2: Variant 12: P450-BM3 variant of SEQ ID NO: 12: K32R; C48S; Y52F; I95P; Q111R; G115R; D232H; M491A; T577A; A627S; D722S (protein)
chain: MTIKEMPQPKTFGELKNLPLLNTDKPVQALMRIADELGEIFKFEAPGSVTRFLSSQRLIKEACDESRFDKNLSQALKFSRDFAGDGLFTSWTHEPNWKKAHNILLPSFSQRAMKRYHAMMVDIAVQLVQKWERLNADEHIEVSEDMTRLTLDTIGLCGFNYRFNSFYRDQPHPFIISMVRALDEVMNKLQRANPDDPAYDENKRQCQEDIKVMNDLVDKIIADRKARGEQSHDLLTQMLNGKDPETGEPLDDGNISYQIITFLIAGHETTSGLLSFALYFLVKNPHVLQKVAEEAARVLVDPVPSYKQVKQLKYVGMVLNEALRLWPTAPAFSLYAKEDTVLGGEYPLEKGDEVMVLIPQLHRDKTIWGDDVEEFRPERFENPSAIPQHAFKPFGNGQRACIGQQFALHEATLVLGMMLKHFDFEDHTNYELDIKETLTLKPEGFVVKAKSKKIPLGGIPSPSTEQSAKKVRKKAENAHNTPLLVLYGSNAGTAEGTARDLADIAMSKGFAPQVATLDSHAGNLPREGAVLIVTASYNGHPPDNAKQFVDWLDQASADEVKGVRYSVFGCGDKNWAATYQKVPAFIDETLAAKGAENIADRGEADASDDFEGTYEEWREHMWSDVASYFNLDIENSEDNKSTLSLQFVDSAADMPLAKMHGAFSTNVVASKELQQPGSARSTRHLEIELPKEASYQEGDHLGVIPRNYEGIVNRVTARFGLSASQQIRLEAEEEKLAHLPLAKTVSVEELLQYVELQDPVTRTQLRAMAAKTVCPPHKVELEALLEKQAYKEQVLAKRLTMLELLEKYPACEMKFSEFIALLPSIRPRYYSISSSPRVDEKQASITVSVVSGEAWSGYGEYKGIASNYLAELQEGDTITCFISTPQSEFTLPKDPETPLIMVGPGTGVAPFRGFVQARKQLKEQGQSLGEAHLYFGCRSPHEDYLYQEELENAQSEGIITLHTAFSRMPNQPKTYVQHVMEQDGKKLIELLDQGAHFYICGDGSQMAPAVEATLMKSYADVHQVSEADARLWLQQLEEKGRYAKDVWAG
modifications: P450_BM3
notes: C48S; Y52F; I95P; Q111R; G115R; D232H; M491A; T577A; A627S; D722S
B3: Variant 13: P450-BM3 variant of SEQ ID NO: 12: K32R; C48S; Y52F; I95P; G115R; D232H; M491A; N574T; T577A; E619D; A627S; D722S (protein)
chain: MTIKEMPQPKTFGELKNLPLLNTDKPVQALMRIADELGEIFKFEAPGSVTRFLSSQRLIKEACDESRFDKNLSQALKFSRDFAGDGLFTSWTHEPNWKKAHNILLPSFSQQAMKRYHAMMVDIAVQLVQKWERLNADEHIEVSEDMTRLTLDTIGLCGFNYRFNSFYRDQPHPFIISMVRALDEVMNKLQRANPDDPAYDENKRQCQEDIKVMNDLVDKIIADRKARGEQSHDLLTQMLNGKDPETGEPLDDGNISYQIITFLIAGHETTSGLLSFALYFLVKNPHVLQKVAEEAARVLVDPVPSYKQVKQLKYVGMVLNEALRLWPTAPAFSLYAKEDTVLGGEYPLEKGDEVMVLIPQLHRDKTIWGDDVEEFRPERFENPSAIPQHAFKPFGNGQRACIGQQFALHEATLVLGMMLKHFDFEDHTNYELDIKETLTLKPEGFVVKAKSKKIPLGGIPSPSTEQSAKKVRKKAENAHNTPLLVLYGSNAGTAEGTARDLADIAMSKGFAPQVATLDSHAGNLPREGAVLIVTASYNGHPPDNAKQFVDWLDQASADEVKGVRYSVFGCGDKTWAATYQKVPAFIDETLAAKGAENIADRGEADASDDFEGTYEEWRDHMWSDVASYFNLDIENSEDNKSTLSLQFVDSAADMPLAKMHGAFSTNVVASKELQQPGSARSTRHLEIELPKEASYQEGDHLGVIPRNYEGIVNRVTARFGLSASQQIRLEAEEEKLAHLPLAKTVSVEELLQYVELQDPVTRTQLRAMAAKTVCPPHKVELEALLEKQAYKEQVLAKRLTMLELLEKYPACEMKFSEFIALLPSIRPRYYSISSSPRVDEKQASITVSVVSGEAWSGYGEYKGIASNYLAELQEGDTITCFISTPQSEFTLPKDPETPLIMVGPGTGVAPFRGFVQARKQLKEQGQSLGEAHLYFGCRSPHEDYLYQEELENAQSEGIITLHTAFSRMPNQPKTYVQHVMEQDGKKLIELLDQGAHFYICGDGSQMAPAVEATLMKSYADVHQVSEADARLWLQQLEEKGRYAKDVWAG
modifications: P450_BM3
notes: C48S; Y52F; I95P; G115R; D232H; M491A; N574T; T577A; E619D; A627S; D722S

What was measured:
Type in all cases: biochemical
[1] = Validation of generalist properties: oxidation of diclofenac by lyophilized P450-BM3 variant, UPLC-MS; conditions: [Diclofenac] = 1 mM; for TON: TON = [substrate]*% conversion/[P450]; for FIOPC (D06): fold improvement over parent MCYP-P1.2-D06
How it was run: (§1)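 Lyophilized lysate of E. coli-expressed P450-BM3 variant (stock standardized to 12 μM heme) was incubated 24 h at 30 °C with 1 or 2 mM substrate, 1.0 mM NADP+, 25 mM glucose, 0.5 mg/mL glucose dehydrogenase and 5% DMSO in 100 mM potassium phosphate. Acetonitrile-quenched samples were analyzed by UPLC-MS (positive ESI).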

[2] = Validation of generalist properties: oxidation of gefitinib by lyophilized P450-BM3 variant, UPLC-MS; conditions: [Gefitinib] = 1 mM; for TON: TON = [substrate]*% conversion/[P450]; for FIOPC (D06): fold improvement over parent MCYP-P1.2-D06
How it was run: as §1

[3] = Validation of generalist properties: oxidation of imatinib by lyophilized P450-BM3 variant, UPLC-MS; conditions: [Imatinib] = 1 mM; for TON: TON = [substrate]*% conversion/[P450]; for FIOPC (D06): fold improvement over parent MCYP-P1.2-D06
How it was run: as §1

[4] = Validation of generalist properties: oxidation of loratadine by lyophilized P450-BM3 variant, UPLC-MS; conditions: [Loratadine] = 1 mM; for TON: TON = [substrate]*% conversion/[P450]; for FIOPC (D06): fold improvement over parent MCYP-P1.2-D06
How it was run: as §1

| Molecule | % Conv. [1] | TON [1] | % Conv. [2] | TON [2] | % Conv. [3] | TON [3] | % Conv. [4] | TON [4] | FIOPC (D06) [1] | FIOPC (D06) [2] | FIOPC (D06) [3] | FIOPC (D06) [4] |
| --- | --- | --- | --- | --- | --- | --- | --- | --- | --- | --- | --- | --- |
| B1 | + (0-5.00) | ‡‡ (1001-5000) | + (0-5.00) | ‡ (0-1000) | ++ (5.01-10.00) | ‡‡ (1001-5000) | + (0-5.00) | ‡‡ (1001-5000) |  |  |  |  |
| B2 | +++ (10.01-15.00) | ‡‡‡ (5001-10000) | + (0-5.00) | ‡ (0-1000) | ++++ (15.01-20.00) | ‡‡‡‡ (10000-50000) | ++ (5.01-10.00) | ‡‡ (1001-5000) | ** (3.01-5.0) | * (0.0-3.0) | *** (5.01-10.0) | * (0.0-3.0) |
| B3 | ++++ (15.01-20.00) | ‡‡‡ (5001-10000) | + (0-5.00) | ‡‡ (1001-5000) | ++++ (15.01-20.00) | ‡‡‡‡ (10000-50000) | + (0-5.00) | ‡‡ (1001-5000) | *** (5.01-10.0) | **** (10.01-15.00) | *** (5.01-10.0) | * (0.0-3.0) |
